According to patent publication US20070098706A1 (University of Texas, published 2007):

T1: GST-NOXA1(SH3+) (human, UniProt Q86UR1 1-476)
T1 construct: the vector-encoded linker is not described; Immobilised on GSH-Sepharose; not shown: glutathione-S-transferase (GST) encoded by vector pGEX-3X
T1 sequence: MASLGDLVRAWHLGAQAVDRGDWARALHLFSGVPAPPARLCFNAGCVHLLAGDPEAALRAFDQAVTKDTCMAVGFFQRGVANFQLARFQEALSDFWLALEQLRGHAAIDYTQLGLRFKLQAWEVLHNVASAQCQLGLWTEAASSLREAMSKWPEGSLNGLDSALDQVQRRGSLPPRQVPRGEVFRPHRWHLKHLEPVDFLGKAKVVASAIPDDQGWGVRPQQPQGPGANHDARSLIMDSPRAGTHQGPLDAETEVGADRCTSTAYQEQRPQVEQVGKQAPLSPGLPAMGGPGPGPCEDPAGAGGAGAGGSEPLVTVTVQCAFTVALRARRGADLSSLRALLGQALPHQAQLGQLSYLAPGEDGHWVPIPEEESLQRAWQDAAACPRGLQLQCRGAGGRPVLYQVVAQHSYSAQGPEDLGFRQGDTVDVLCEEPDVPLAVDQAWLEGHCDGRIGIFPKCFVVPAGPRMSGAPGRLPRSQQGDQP

B1: human p47^phox (other, UniProt P14598 1-390, looked up)
chain: MGDTFIRHIALLGFEKRFVPSQHYVYMFLVKWQDLSEKVVYRRFTEIYEFHKTLKEMFPIEAGAINPENRIIPHLPAPKWFDGQRAAENRQGTLTEYCSTLMSLPTKISRCPHLLDFFKVRPDDLKLPTDNQTKKPETYLMPKDGKSTATDITGPIILQTYRAIANYEKTSGSEMALSTGDVVEVVEKSESGWWFCQMKAKRGWIPASFLEPLDSPDETEDPEPNYAGEPYVAIKAYTAVEGDEVSLLEGEAVEVIHKLLDGWWVIRKDDVTGYFPSMYLQKSGQDVSQAQRQIKRGAPPRRSSIRNAHSIHQRSRKRLSQDAYRRNSVRFLQQRRRQARPGPQSPGSPLEEERQTQRSKPQPAVPPRPSADLILNRCSESTKRKLASAV
modifications: labeled in vitro with [35S]-methionine/[35S]-cysteine
notes: no residue limits are printed
B2: GST-(SH3)+ (other)
chain: RGLQLQCRGAGGRPVLYQVVAQHSYSAQGPEDLGFRQGDTVDVLCEEPDVPLAVDQAWLEGHCDGRIGIFPKCFVVPAGPRMSGAPGRLPRSQQGDQP
notes: Cloned at the EcoRI site of pGEX-3X in frame with GST; the linker is not described; also called fusion protein of GST and the C-terminal NOXA1(SH3+) polypeptide; not shown: glutathione-S-transferase (GST) encoded by vector pGEX-3X
B3: MBP-NOXO1(288-370) (other, human, UniProt Q8NFA2 294-376, looked up, not shown: large carriers)
chain: EGLGALLSGTGFRGGDDPAGEARGFPEPSQATAPPPTVPTRPSPGAIQSRCCTVTRRALERRPRRQGRPRGCVDSVPHPTTEQ
modifications: labeled in vitro with [35S]-methionine/[35S]-cysteine
notes: range 294-376; Cloned at the SacI/XhoI sites of pET23bMBPH6 in frame with MBP; linker and any vector tag are not described; Made by in vitro coupled transcription/translation; also called NBP-NOXO1(288-370)

Legend:
GST-NOXA1(SH3+) [1] = target: T1, GST-NOXA1(SH3+); experiment: GST pull-down of 35S-labelled p47phox, SDS-PAGE and fluorography
Procedure: (§1) Binding interactions are carried out between GST, GST-NOXA1, GST-NOXA1_{SH3+)}, GST-(SH3wt) and GST-(SH3+) fusion proteins immobilized on GSH-Sepharose, and the in vitro synthesized [³⁵S]-labeled target proteins. Volumes of fusion protein bacterial lysates, previously determined to give equal loading of the GSH-Sepharose, are mixed for 5 min at room temperature with 250 μl of a 50% suspension of washed GSH-Sepharose in PBS (137 mM NaCl, 2.68 mM KCl, […] Na2HPO4, pH 7.3). The suspension is washed twice and resuspended to 500 μl in PBS with 10 mM DTT. Human NOX1, NOX2, p47^phox and MBP-NOXO1₍₂₈₈₋₃₇₀₎ are synthesized and labeled in vitro with [³⁵S]-methlionine/[³⁵S]-cysteine (Redivue Pro-mix L-[³⁵S] labeling mix, Amersham Biosciences, Inc. # AGQ0080) using the TNT® Coupled Reticulocyte Lysate System (Promega) and T7 RNA polymerase. A 24 μl aliquot of the labeling reaction is mixed with 476 μl of the resuspended immobilized GST fusion protein for 15 min at room temperature. The gel pellet is washed 4X with 500 μl of PBS/10 mM DTT/0.05% Triton X-100. […] The entire volume of the denatured samples is separated on 9% SDS-PAGE and analyzed by fluorography. A sample of the original binding gel is analyzed by denaturing SDS-PAGE and Coomassie staining to confirnm the loading of the GST proteins. […]

human p47^phox = target: B1; experiment: GST pull-down of 35S-labelled p47phox with isolated SH3-containing polypeptides
Procedure: as §1

GST-NOXA1(SH3+) [2] = target: T1, GST-NOXA1(SH3+); experiment: GST pull-down of 35S-labelled MBP-NOXO1(288-370), SDS-PAGE and fluorography
Procedure: as §1

GST-(SH3)+ = target: B2; experiment: GST pull-down of 35S-labelled MBP-NOXO1(288-370) with isolated SH3-containing polypeptides
Procedure: as §1

B1: no binding (GST-NOXA1(SH3+) [1]).

B2: no binding (human p47^phox).

B3: no binding (GST-NOXA1(SH3+) [2]); no binding (GST-(SH3)+).
